Reference: PMC3169591

Assays:
[1] = target: Klebsiella pneumoniae PriB (full-length, 104-amino acid protein) (Klebsiella pneumoniae (strain MGH78578)); experiment: SEC; each protein applied alone at approximately 3.4 g/l to a HiPrep HR 16/10 sephacryl S-100 column, 0.35 ml/min, 10 mM Tris-HCl pH 8, 10% glycerol, 0.5 M NaCl, 1 mM beta-mercaptoethanol; column calibrated with protein standards of known molecular weight
PriB = PriB (Klebsiella pneumoniae MGH78578, UniProt A6THB2 1-104); experiment: fluorescence anisotropy; apparent Kd; 1 mM Mg2+; 20 mM Tris-HCl pH 8, 50 mM NaCl, 4% glycerol, 1 mM MgCl2, 1 mM beta-mercaptoethanol, 0.1 mg/ml BSA, 1 nM DNA, 25 C; settings: protein: recombinant; tags: N-terminal His6 (pET28b); chain copies: 2; label: 3'-fluorescein; single strand
Sequence of PriB (A6THB2 whole entry): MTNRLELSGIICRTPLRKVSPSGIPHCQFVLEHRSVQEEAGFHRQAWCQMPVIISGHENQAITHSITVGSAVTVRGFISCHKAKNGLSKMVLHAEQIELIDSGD

Sequence of Klebsiella pneumoniae PriB (full-length, 104-amino acid protein) (natural protein) (A6THB2 whole entry): as above

Molecule: Klebsiella pneumoniae PriB (full-length, 104-amino acid protein) (natural protein)
- stoichiometry N [1]: 2

Molecule: GCCGTGATCACCAATGCAGATTGACGAACCTTTGCTCCAGTAACC (ssDNA) [45-mer]
- Kd (PriB): 62 ± 14 nM

Molecule: GCGTGGGTAATTGTGCTTCAATGGACTGAC (ssDNA) [30-mer]
- Kd (PriB): 45 ± 7 nM

Molecule: TAGCAATGTAATCGT (ssDNA) [15-mer]
- Kd (PriB): 50 ± 3 nM
